In patent US20230129258A1, “HETEROTANDEM BICYCLIC PEPTIDE COMPLEXES” (BicycleTx Limited, priority 2019, published 2023):
One block for each binder: values may come before it. Starred links: 1 amine or outer side, 2 acyl side, 3 side chain; linkers in the order of their positions; H or OH if unused. Positions of bridges follow the written chain, without caps; N, C: chain ends. Non-standard residues stand in square brackets, D forms with d. Chains are numbered I, II in the order given. No end group written: not given here. *: point of attachment. TATA = O=C(CC[*:1])N1CN(C(=O)CC[*:2])CN(C(=O)CC[*:3])C1; Dip = N[C@H](C(=O)O)C(c1ccccc1)c1ccccc1; d1Nal = N[C@H](Cc1cccc2ccccc12)C(=O)O; Hyp = O=C(O)[C@@H]1C[C@@H](O)CN1; hArg = N=C(N)NCCCC[C@H](N)C(=O)O; tBuAla = CC(C)(C)C[C@H](N)C(=O)O; Cba = N[C@@H](CC1CCC1)C(=O)O; dK(PYA) = not defined here; NMeA = CN[C@@H](C)C(=O)O; Nle = CCCC[C@H](N)C(=O)O; Pent4ynoyl = C#CCCC(=O)*; Mpa = O=C(O)CCS

Biological target: CD137 on Jurkat reporter cells (Promega kit CS196005) (UniProt Q07011)
Assay: cell-based or functional assay

Sequence of CD137 on Jurkat reporter cells (Promega kit CS196005) (Q07011 24-255 limits assumed): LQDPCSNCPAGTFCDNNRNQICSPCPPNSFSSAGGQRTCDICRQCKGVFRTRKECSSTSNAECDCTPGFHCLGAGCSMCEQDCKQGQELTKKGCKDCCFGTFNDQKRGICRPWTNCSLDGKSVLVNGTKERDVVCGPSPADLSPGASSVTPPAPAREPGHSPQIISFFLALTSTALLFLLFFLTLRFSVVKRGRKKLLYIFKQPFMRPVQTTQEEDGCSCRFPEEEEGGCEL

B1: BCY13050 (peptide)
peptide 1: A[hArg]DC[Hyp][Cba]VNPLCLHP[dD]W[hArg]C
peptide 2: Ac-C[tBuAla]PE[dK](Pent4ynoyl)PYCFADPY[Nle]CA
modifications: linker I:4-I:11-I:18, II:1-II:8-II:15 via TATA; not fully specified (N-terminus, bridges); also: linker joins chain 1 to two chain 2 copies via PYA triazoles
EC50 (nM), PC3 co-culture: 0.09 nM
Emax (fold induction over background), PC3 (fold over background): 42.5

B2: BCY12976 (peptide)
peptide 1: Ac-A[hArg]DC[Hyp]LVNPLCKHP[dD]W[hArg]C
peptide 2: Ac-C[tBuAla]PE[dK(PYA)]PYCFADPY[Nle]CA
modifications: linker I:4-I:11-I:18, II:1-II:8-II:15 via TATA; linker I:12-II:5 via N‑(acid-PEG3)‑N‑bis(PEG3-azide); reading uncertain; also: two CD137 bicycles per complex (EphA2:CD137 1:2)
EC50 (nM), PC3 co-culture: 0.18 nM
Emax (fold induction over background), PC3 (fold over background): 73.2

B6: BCY12979 (peptide)
peptide 1: A[hArg]DC[Hyp]LVNPLCLHP[dD]W[hArg]C
peptide 2: Ac-C[tBuAla]PE[dK(PYA)]PYCFADPY[Nle]CA
modifications: linker I:4-I:11-I:18, II:1-II:8-II:15 via TATA; not fully specified (bridges); reading uncertain; also: two CD137 bicycles per complex (EphA2:CD137 1:2)
EC50 (nM), PC3 co-culture: 0.08 nM
Emax (fold induction over background), PC3 (fold over background): 71.6

B7: BCY12973 (peptide)
peptide 1: Ac-A[hArg]DC[Hyp]LVNPLCLHP[dD]W[hArg]CK
peptide 2: Ac-C[tBuAla]PE[dK(PYA)]PYCFADPY[Nle]CA
modifications: linker I:4-I:11-I:18, II:1-II:8-II:15 via TATA; linker I:19-II:5 via N‑(acid-PEG3)‑N‑bis(PEG3-azide); reading uncertain; also: two CD137 bicycles per complex (EphA2:CD137 1:2)
EC50 (nM), PC3 co-culture: 0.16 nM
Emax (fold induction over background), PC3 (fold over background): 48.6

B8: BCY13047 (peptide)
peptide 1: A[hArg]DC[Hyp]LVNPLCL[Dip]P[dD]WTC
peptide 2: Ac-C[tBuAla]PE[dK(PYA)]PYCFADPY[Nle]CA
modifications: linker I:4-I:11-I:18, II:1-II:8-II:15 via TATA; not fully specified (N-terminus, bridges); reading uncertain; also: two CD137 bicycles per complex (EphA2:CD137 1:2)
EC50 (nM), PC3 co-culture: 0.07 nM
Emax (fold induction over background), PC3 (fold over background): 46.4

B13: BCY13051 (peptide)
peptide 1: A[hArg]DC[Hyp][Cba]VNPLCLEP[dD]WTC
peptide 2: Ac-C[tBuAla]PE[dK](Pent4ynoyl)PYCFADPY[Nle]CA
modifications: linker I:4-I:11-I:18, II:1-II:8-II:15 via TATA; not fully specified (N-terminus, bridges); also: linker joins chain 1 to two chain 2 copies via PYA triazoles
EC50 (nM), PC3 co-culture: 0.21 nM
Emax (fold induction over background), PC3 (fold over background): 37

B15: BCY12975 (peptide)
peptide 1: Ac-A[hArg]DC[Hyp]KVNPLCLHP[dD]W[hArg]C
peptide 2: Ac-C[tBuAla]PE[dK(PYA)]PYCFADPY[Nle]CA
modifications: linker I:4-I:11-I:18, II:1-II:8-II:15 via TATA; linker I:6-II:5 via N‑(acid-PEG3)‑N‑bis(PEG3-azide); reading uncertain; also: two CD137 bicycles per complex (EphA2:CD137 1:2)
EC50 (nM), PC3 co-culture: 0.16 nM
Emax (fold induction over background), PC3 (fold over background): 68.8

B17: BCY12977 (peptide)
peptide 1: A[hArg]DC[Hyp]LVNPLCLHP[dE]W[hArg]C
peptide 2: Ac-C[tBuAla]PE[dK(PYA)]PYCFADPY[Nle]CA
modifications: linker I:4-I:11-I:18, II:1-II:8-II:15 via TATA; linker II:N-II:5 via N‑(acid-PEG3)‑N‑bis(PEG3-azide); reading uncertain; also: two CD137 bicycles per complex (EphA2:CD137 1:2)
EC50 (nM), PC3 co-culture: 0.08 nM
Emax (fold induction over background), PC3 (fold over background): 67.2

Second part, the binder after the results:

Fold Improvement over BCY9173, EC50, PC3: 7.14 fold
Fold Improvement over Emax (BCY9173), PC3: 0.94 fold
B3: BCY14335 (peptide)
peptide 1: {Palmitoyl‑Glu‑LysN3-Pent4ynoyl}-A[hArg]DC[Hyp]LVNPLCLKP[dD]W[hArg]C
peptide 2: Ac-C[tBuAla]PE[dK](Pent4ynoyl)PYCFADPY[Nle]CA
modifications: linker I:4-I:11-I:18, II:1-II:8-II:15 via TATA (inferred); not fully specified; also: 1:2 complex: chain 1 Lys ('Lys 8') joined to dLys(PYA)5 of two chain 2 copies via N-(acid-PEG3)-N-bis(PEG3-azide) linker

EC50 (nM), PC3 co-culture: 0.08 nM
Emax (fold induction over background), PC3 (fold over background): 47.5
B4: BCY13275 (peptide)
peptide 1: [NMeA][hArg]DC[Hyp]LVNPLCLHP[dD]W[hArg]C
peptide 2: Ac-C[tBuAla]PE[dK](Pent4ynoyl)PYCFADPY[Nle]CA
modifications: linker I:4-I:11-I:18, II:1-II:8-II:15 via TATA; not fully specified (N-terminus, bridges); also: linker joins chain 1 to two chain 2 copies via PYA triazoles

EC50 (nM), PC3 co-culture: 0.1 nM
Emax (fold induction over background), PC3 (fold over background): 50.5
B5: BCY13276 (peptide)
peptide 1: [NMeA][hArg]DC[Hyp]LVNPLCLEP[dD]WTC
peptide 2: Ac-C[tBuAla]PE[dK](Pent4ynoyl)PYCFADPY[Nle]CA
modifications: linker I:4-I:11-I:18, II:1-II:8-II:15 via TATA; not fully specified (N-terminus, bridges); also: linker joins chain 1 to two chain 2 copies via PYA triazoles

EC50 (nM), PC3 co-culture: 0.1 nM
Emax (fold induction over background), PC3 (fold over background): 42.5
B9: BCY13270 (peptide)
peptide 1: A[hArg]DC[Hyp]LVNPLCLHP[d1Nal]W[hArg]C
peptide 2: Ac-C[tBuAla]PE[dK](Pent4ynoyl)PYCFADPY[Nle]CA
modifications: linker I:4-I:11-I:18, II:1-II:8-II:15 via TATA; not fully specified (N-terminus, bridges); also: linker joins chain 1 to two chain 2 copies via PYA triazoles

Fold Improvement over BCY9173, EC50, PC3: 7.21 fold
Fold Improvement over Emax (BCY9173), PC3: 1.62 fold
B10: BCY14334 (peptide)
peptide 1: A[hArg]DC[Hyp]LVNPLCLKP[dD]W[hArg]C
peptide 2: Ac-C[tBuAla]PE[dK](Pent4ynoyl)PYCFADPY[Nle]CA
modifications: linker I:4-I:11-I:18 via TATA; linker II:1-II:8-II:15 via TATA (inferred); not fully specified (some residues); also: N-(acid-PEG3)-N-bis(PEG3-azide) linker at chain 1 N-terminus, joined to dLys(PYA)4 of two BCY8928 chains (1:2 complex)

EC50 (nM), PC3 co-culture: 0.17 nM
Emax (fold induction over background), PC3 (fold over background): 32.6
B11: BCY13138 (peptide)
peptide 1: A[hArg]DC[Hyp]LVNPLCLEP[dD]WTC
peptide 2: [Mpa][tBuAla]PE[dK(PYA)]PYCFADPY[Nle]C
modifications: linker I:4-I:11-I:18, II:1-II:8-II:15 via TATA (inferred); not fully specified (N-terminus); reading uncertain; also: linker joins chain 1 to two chain 2 copies via PYA triazoles

EC50 (nM), PC3 co-culture: 0.07 nM
Emax (fold induction over background), PC3 (fold over background): 36.5
B12: BCY13054 (peptide)
peptide 1: A[hArg]DC[Hyp]LVNPLCL[Dip]P[dD]W[hArg]C
peptide 2: Ac-C[tBuAla]PE[dK](Pent4ynoyl)PYCFADPY[Nle]CA
modifications: linker I:4-I:11-I:18, II:1-II:8-II:15 via TATA; not fully specified (N-terminus, bridges); also: linker joins chain 1 to two chain 2 copies via PYA triazoles

EC50 (nM), PC3 co-culture: 0.16 nM
Emax (fold induction over background), PC3 (fold over background): 43.8
B14: BCY13139 (peptide)
peptide 1: A[hArg]DC[Hyp]LVNPLCLHP[dD]W[hArg]C
peptide 2: [Mpa][tBuAla]EE[dK](Pent4ynoyl)PYCFADPY[Nle]C
modifications: linker I:4-I:11-I:18, II:1-II:8-II:15 via TATA; not fully specified (N-terminus); also: linker joins chain 1 to two chain 2 copies via PYA triazoles

EC50 (nM), PC3 co-culture: 0.21 nM
Emax (fold induction over background), PC3 (fold over background): 32.9
B16: BCY13052 (peptide)
peptide 1: [dA][hArg]DC[Hyp][Cba]VNPLCLEP[dD]WTC[dA]
peptide 2: Ac-C[tBuAla]PE[dK](Pent4ynoyl)PYCFADPY[Nle]CA
modifications: linker I:4-I:11-I:18, II:1-II:8-II:15 via TATA (inferred); not fully specified (N-terminus); also: chain 2: linker at dLys(PYA)4 (place not given here by letters), linker N-(acid-PEG3)-N-bis(PEG3-azide) joins N-terminus of chain 1 to dLys(PYA) of chain 2

EC50 (nM), PC3 co-culture: 0.12 nM
Emax (fold induction over background), PC3 (fold over background): 46.7
B18: BCY13140 (peptide)
peptide 1: A[hArg]DC[Hyp]LVNPLCLEP[dD]WTC
peptide 2: [Mpa][tBuAla]EE[dK](Pent4ynoyl)PYCFADPY[Nle]C
modifications: linker I:4-I:11-I:18, II:1-II:8-II:15 via TATA; not fully specified (N-terminus); also: linker joins chain 1 to two chain 2 copies via PYA triazoles
